Starred links: 1 amine or outer side, 2 acyl side, 3 side chain; linkers in the order of their positions; H or OH if unused. Non-standard residues stand in square brackets, D forms with d. Groups on a side chain read outwards from the residue. No end group written: not given here. *: point of attachment. C18 diacid = O=C(O)CCCCCCCCCCCCCCCCC(=O)*; γGlu = O=C(O)[C@H](CCC(=O)[*:2])N[*:1]; AEEA = NCCOCCOCC(=O)O; Aib = CC(C)(N)C(=O)O
T1: anti-target CRF1R receptor (UniProt P34998 24-415, limits assumed)
T1 sequence (looked up): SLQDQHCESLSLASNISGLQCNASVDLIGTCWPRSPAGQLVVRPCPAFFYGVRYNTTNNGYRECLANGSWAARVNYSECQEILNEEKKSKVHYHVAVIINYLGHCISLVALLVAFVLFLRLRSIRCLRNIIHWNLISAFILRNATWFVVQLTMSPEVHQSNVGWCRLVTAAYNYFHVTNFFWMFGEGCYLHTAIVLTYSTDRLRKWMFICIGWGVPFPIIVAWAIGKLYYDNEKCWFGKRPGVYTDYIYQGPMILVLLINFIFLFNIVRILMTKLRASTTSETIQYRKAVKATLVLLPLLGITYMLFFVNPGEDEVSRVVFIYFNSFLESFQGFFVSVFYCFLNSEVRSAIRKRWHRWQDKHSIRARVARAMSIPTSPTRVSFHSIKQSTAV


Columns and labels:
[1] = biological target: T1, anti-target CRF1R receptor; assay: cell-based or functional assay
[2] = biological target: rat CRF2R α receptor (rat, UniProt P47866 20-411); assay: cell-based or functional assay
rat CRF2R α receptor, sequence (P47866 20-411): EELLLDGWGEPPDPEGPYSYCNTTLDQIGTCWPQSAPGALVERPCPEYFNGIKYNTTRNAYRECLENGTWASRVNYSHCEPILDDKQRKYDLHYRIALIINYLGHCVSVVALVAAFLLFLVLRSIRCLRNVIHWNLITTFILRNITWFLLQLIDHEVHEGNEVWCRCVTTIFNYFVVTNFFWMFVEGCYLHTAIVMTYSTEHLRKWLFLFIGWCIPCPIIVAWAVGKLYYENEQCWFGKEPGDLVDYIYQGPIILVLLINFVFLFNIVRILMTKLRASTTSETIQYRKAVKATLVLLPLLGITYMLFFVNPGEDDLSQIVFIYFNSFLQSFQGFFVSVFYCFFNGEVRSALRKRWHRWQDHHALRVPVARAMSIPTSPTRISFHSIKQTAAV

Binder | EC50[nM] 0% HSA (cAMP, CRF1R-overexpression CHO cells) [1] [nM] | Emax (%) (cAMP, CRF1R-overexpression CHO cells) [1] | EC50 [nM], 0% HSA (cAMP, A7R5 cells) [2] [nM]
IVLSLDVPIKLK([AEEA-AEEA-γGlu-C18 diacid])QILLKQERQKKQREKAKTNKQILAQV-NH2 (N-terminus assumed; SMILES CC[C@H](C)[C@H](N)C(=O)N[C@H](C(=O)N[C@@H](CC(C)C)C(=O)N[C@@H](CO)C(=O)N[C@@H](CC(C)C)C(=O)N[C@@H](CC(=O)O)C(=O)N[C@H](C(=O)N1CCC[C@H]1C(=O)N[C@H](C(=O)N[C@@H](CCCCN)C(=O)N[C@@H](CC(C)C)C(=O)N[C@@H](CCCCNC(=O)COCCOCCNC(=O)COCCOCCNC(=O)CC[C@H](NC(=O)CCCCCCCCCCCCCCCCC(=O)O)C(=O)O)C(=O)N[C@@H](CCC(N)=O)C(=O)N[C@H](C(=O)N[C@@H](CC(C)C)C(=O)N[C@@H](CC(C)C)C(=O)N[C@@H](CCCCN)C(=O)N[C@@H](CCC(N)=O)C(=O)N[C@@H](CCC(=O)O)C(=O)N[C@@H](CCCNC(=N)N)C(=O)N[C@@H](CCC(N)=O)C(=O)N[C@@H](CCCCN)C(=O)N[C@@H](CCCCN)C(=O)N[C@@H](CCC(N)=O)C(=O)N[C@@H](CCCNC(=N)N)C(=O)N[C@@H](CCC(=O)O)C(=O)N[C@@H](CCCCN)C(=O)N[C@@H](C)C(=O)N[C@@H](CCCCN)C(=O)N[C@H](C(=O)N[C@@H](CC(N)=O)C(=O)N[C@@H](CCCCN)C(=O)N[C@@H](CCC(N)=O)C(=O)N[C@H](C(=O)N[C@@H](CC(C)C)C(=O)N[C@@H](C)C(=O)N[C@@H](CCC(N)=O)C(=O)N[C@H](C(N)=O)C(C)C)[C@@H](C)CC)[C@@H](C)O)[C@@H](C)CC)[C@@H](C)CC)C(C)C)C(C)C) [peptide of SEQ ID NO: 87] | > 1000 | -0.2 | 1.49
IVLSLDVPIKLK([AEEA-AEEA-γGlu-C18 diacid])KILLKQERQKK[Aib]REQAEKNKQILAQV-NH2 (N-terminus assumed; SMILES CC[C@H](C)[C@H](N)C(=O)N[C@H](C(=O)N[C@@H](CC(C)C)C(=O)N[C@@H](CO)C(=O)N[C@@H](CC(C)C)C(=O)N[C@@H](CC(=O)O)C(=O)N[C@H](C(=O)N1CCC[C@H]1C(=O)N[C@H](C(=O)N[C@@H](CCCCN)C(=O)N[C@@H](CC(C)C)C(=O)N[C@@H](CCCCNC(=O)COCCOCCNC(=O)COCCOCCNC(=O)CC[C@H](NC(=O)CCCCCCCCCCCCCCCCC(=O)O)C(=O)O)C(=O)N[C@@H](CCCCN)C(=O)N[C@H](C(=O)N[C@@H](CC(C)C)C(=O)N[C@@H](CC(C)C)C(=O)N[C@@H](CCCCN)C(=O)N[C@@H](CCC(N)=O)C(=O)N[C@@H](CCC(=O)O)C(=O)N[C@@H](CCCNC(=N)N)C(=O)N[C@@H](CCC(N)=O)C(=O)N[C@@H](CCCCN)C(=O)N[C@@H](CCCCN)C(=O)NC(C)(C)C(=O)N[C@@H](CCCNC(=N)N)C(=O)N[C@@H](CCC(=O)O)C(=O)N[C@@H](CCC(N)=O)C(=O)N[C@@H](C)C(=O)N[C@@H](CCC(=O)O)C(=O)N[C@@H](CCCCN)C(=O)N[C@@H](CC(N)=O)C(=O)N[C@@H](CCCCN)C(=O)N[C@@H](CCC(N)=O)C(=O)N[C@H](C(=O)N[C@@H](CC(C)C)C(=O)N[C@@H](C)C(=O)N[C@@H](CCC(N)=O)C(=O)N[C@H](C(N)=O)C(C)C)[C@@H](C)CC)[C@@H](C)CC)[C@@H](C)CC)C(C)C)C(C)C) [peptide of SEQ ID NO: 99] | > 1000 | 3.25 | 0.62
IVLSLDVPIKLK([AEEA-AEEA-γGlu-C18 diacid])QILLKQERQKKQREQAKTNKQILAQV-NH2 (N-terminus assumed; SMILES CC[C@H](C)[C@H](N)C(=O)N[C@H](C(=O)N[C@@H](CC(C)C)C(=O)N[C@@H](CO)C(=O)N[C@@H](CC(C)C)C(=O)N[C@@H](CC(=O)O)C(=O)N[C@H](C(=O)N1CCC[C@H]1C(=O)N[C@H](C(=O)N[C@@H](CCCCN)C(=O)N[C@@H](CC(C)C)C(=O)N[C@@H](CCCCNC(=O)COCCOCCNC(=O)COCCOCCNC(=O)CC[C@H](NC(=O)CCCCCCCCCCCCCCCCC(=O)O)C(=O)O)C(=O)N[C@@H](CCC(N)=O)C(=O)N[C@H](C(=O)N[C@@H](CC(C)C)C(=O)N[C@@H](CC(C)C)C(=O)N[C@@H](CCCCN)C(=O)N[C@@H](CCC(N)=O)C(=O)N[C@@H](CCC(=O)O)C(=O)N[C@@H](CCCNC(=N)N)C(=O)N[C@@H](CCC(N)=O)C(=O)N[C@@H](CCCCN)C(=O)N[C@@H](CCCCN)C(=O)N[C@@H](CCC(N)=O)C(=O)N[C@@H](CCCNC(=N)N)C(=O)N[C@@H](CCC(=O)O)C(=O)N[C@@H](CCC(N)=O)C(=O)N[C@@H](C)C(=O)N[C@@H](CCCCN)C(=O)N[C@H](C(=O)N[C@@H](CC(N)=O)C(=O)N[C@@H](CCCCN)C(=O)N[C@@H](CCC(N)=O)C(=O)N[C@H](C(=O)N[C@@H](CC(C)C)C(=O)N[C@@H](C)C(=O)N[C@@H](CCC(N)=O)C(=O)N[C@H](C(N)=O)C(C)C)[C@@H](C)CC)[C@@H](C)O)[C@@H](C)CC)[C@@H](C)CC)C(C)C)C(C)C) [peptide of SEQ ID NO: 86] | > 1000 | 15.9 | 0.69

Continued, values first:

EC50[nM] 0% HSA (cAMP, CRF1R-overexpression CHO cells) [1] [nM] | Emax (%) (cAMP, CRF1R-overexpression CHO cells) [1] | EC50 [nM], 0% HSA (cAMP, A7R5 cells) [2] [nM] | Binder
> 1000 | 36.9 | 0.79 | IVLSLD[dV]PIKLK([AEEA-AEEA-γGlu-C18 diacid])QILLEQERQK[Aib]QREQAEKNKQILERV-NH2 (N-terminus assumed; SMILES CC[C@H](C)[C@H](N)C(=O)N[C@H](C(=O)N[C@@H](CC(C)C)C(=O)N[C@@H](CO)C(=O)N[C@@H](CC(C)C)C(=O)N[C@@H](CC(=O)O)C(=O)N[C@@H](C(=O)N1CCC[C@H]1C(=O)N[C@H](C(=O)N[C@@H](CCCCN)C(=O)N[C@@H](CC(C)C)C(=O)N[C@@H](CCCCNC(=O)COCCOCCNC(=O)COCCOCCNC(=O)CC[C@H](NC(=O)CCCCCCCCCCCCCCCCC(=O)O)C(=O)O)C(=O)N[C@@H](CCC(N)=O)C(=O)N[C@H](C(=O)N[C@@H](CC(C)C)C(=O)N[C@@H](CC(C)C)C(=O)N[C@@H](CCC(=O)O)C(=O)N[C@@H](CCC(N)=O)C(=O)N[C@@H](CCC(=O)O)C(=O)N[C@@H](CCCNC(=N)N)C(=O)N[C@@H](CCC(N)=O)C(=O)N[C@@H](CCCCN)C(=O)NC(C)(C)C(=O)N[C@@H](CCC(N)=O)C(=O)N[C@@H](CCCNC(=N)N)C(=O)N[C@@H](CCC(=O)O)C(=O)N[C@@H](CCC(N)=O)C(=O)N[C@@H](C)C(=O)N[C@@H](CCC(=O)O)C(=O)N[C@@H](CCCCN)C(=O)N[C@@H](CC(N)=O)C(=O)N[C@@H](CCCCN)C(=O)N[C@@H](CCC(N)=O)C(=O)N[C@H](C(=O)N[C@@H](CC(C)C)C(=O)N[C@@H](CCC(=O)O)C(=O)N[C@@H](CCCNC(=N)N)C(=O)N[C@H](C(N)=O)C(C)C)[C@@H](C)CC)[C@@H](C)CC)[C@@H](C)CC)C(C)C)C(C)C) [peptide of SEQ ID NO: 132]
> 1000 | 5.06 | 7.52 | IVLSLDVPIKLK([AEEA-AEEA-γGlu-C18 diacid])KILLKQERQKK[Aib]REQAETN[Aib]QILAQV-NH2 (N-terminus assumed; SMILES CC[C@H](C)[C@H](N)C(=O)N[C@H](C(=O)N[C@@H](CC(C)C)C(=O)N[C@@H](CO)C(=O)N[C@@H](CC(C)C)C(=O)N[C@@H](CC(=O)O)C(=O)N[C@H](C(=O)N1CCC[C@H]1C(=O)N[C@H](C(=O)N[C@@H](CCCCN)C(=O)N[C@@H](CC(C)C)C(=O)N[C@@H](CCCCNC(=O)COCCOCCNC(=O)COCCOCCNC(=O)CC[C@H](NC(=O)CCCCCCCCCCCCCCCCC(=O)O)C(=O)O)C(=O)N[C@@H](CCCCN)C(=O)N[C@H](C(=O)N[C@@H](CC(C)C)C(=O)N[C@@H](CC(C)C)C(=O)N[C@@H](CCCCN)C(=O)N[C@@H](CCC(N)=O)C(=O)N[C@@H](CCC(=O)O)C(=O)N[C@@H](CCCNC(=N)N)C(=O)N[C@@H](CCC(N)=O)C(=O)N[C@@H](CCCCN)C(=O)N[C@@H](CCCCN)C(=O)NC(C)(C)C(=O)N[C@@H](CCCNC(=N)N)C(=O)N[C@@H](CCC(=O)O)C(=O)N[C@@H](CCC(N)=O)C(=O)N[C@@H](C)C(=O)N[C@@H](CCC(=O)O)C(=O)N[C@H](C(=O)N[C@@H](CC(N)=O)C(=O)NC(C)(C)C(=O)N[C@@H](CCC(N)=O)C(=O)N[C@H](C(=O)N[C@@H](CC(C)C)C(=O)N[C@@H](C)C(=O)N[C@@H](CCC(N)=O)C(=O)N[C@H](C(N)=O)C(C)C)[C@@H](C)CC)[C@@H](C)O)[C@@H](C)CC)[C@@H](C)CC)C(C)C)C(C)C) [peptide of SEQ ID NO: 100]
